The text below walks through data of the supplement of paper PMC7125110.

The labels stand for the following.
B1: glmS ribozyme (parent)
chain: AUAAAAGCGCCAGAACUACAGAAAUGUAGUUGACGAGGAGGAGGUUUAUCGAAUUUUCGGCGGAUGCCUCCAAA

± gives the standard error. Fewer inactive variants are shown than the library holds.

Conditions in all cases: with glucosamine-6-phosphate
The variants in data set [1] derive from B1. Description: self-cleavage kobs at 40 uM GlcN6P; higher = faster cleavage; RNA array. In outline: (§1)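 Barcoded glmS ribozyme variants on sequenced MiSeq chips were transcribed in situ by E. coli RNA polymerase and tracked through a hybridised Cy3 probe at 37 °C. Glucosamine-6-phosphate (40 μM to 10 mM) in HEPES/KCl/Mg(OAc)2 buffer was flowed in, and tiles were imaged over ~14 h. Signals were normalised to baseline and to non-cleaving reference variants; per-tile medians were fit to one- or two-exponential decays to give kobs. kcat and KM came from weighted Michaelis–Menten fits across concentrations.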

Data set [2] covers variants of B1. Nature of the data set: self-cleavage kobs at 640 uM GlcN6P; higher = faster cleavage; RNA array. In outline: as §1
In data set [3] the parent is B1. Nature of the data set: self-cleavage kobs at 10000 uM GlcN6P; higher = faster cleavage; RNA array. In outline:
as §1

Data set [4] covers variants of B1. Description: self-cleavage kobs at 160 uM GlcN6P; higher = faster cleavage; RNA array. In outline:
as §1

Variants of B1 are the subject of data set [5]. Nature of the data set: self-cleavage kobs at 2500 uM GlcN6P; higher = faster cleavage; RNA array. In outline: as §1

AUAAAAGCGCCAGAACUACAGAAAUGUAGUUGAAGAGGAGGAGGUUUAUCGUAUUUUCGGCGGAUGCCUCCAAA [C34A A52U]: the “self-cleavage kobs at 40 uM GlcN6P” value in the data set with glucosamine-6-phosphate [1] was less than 1e-05 s⁻¹. Moreover, the “self-cleavage kobs at 640 uM GlcN6P” value with glucosamine-6-phosphate [2] is less than 1e-05 s⁻¹. Besides, the “self-cleavage kobs at 10000 uM GlcN6P” value with glucosamine-6-phosphate [3] is less than 1e-05 s⁻¹.

Turning to AUAAAAGCGCCAGAACUACAGAAAUGUAGUUGACGAGGAGGAGGUUUAUCACAUUUUCGGCGGAUGCCUCCAAA [G51A A52C], the “self-cleavage kobs at 40 uM GlcN6P” value in the data set with glucosamine-6-phosphate [1] is less than 1e-05 s⁻¹. Further, the “self-cleavage kobs at 160 uM GlcN6P” value with glucosamine-6-phosphate [4] is less than 1e-05 s⁻¹. The “self-cleavage kobs at 10000 uM GlcN6P” value with glucosamine-6-phosphate [3] is less than 1e-05 s⁻¹.

As for AUAAAAGCGCCAGAACUACAGAAAUGUAGCUGACGAGGAGGAGGUUUAUCGCAUUUUCGGCGGCUGCCUCCAAA [U30C A52C A64C], the “self-cleavage kobs at 40 uM GlcN6P” value with glucosamine-6-phosphate [1] was less than 1e-05 s⁻¹.

On to AUAAAAGCGCCAGAACUACAGAAAUGUAGUUGACGAGGAGGAGGUUUAUCCAAUAUUCGGCGGAUGCCUCCAAA [G51C U55A], for which the “self-cleavage kobs at 40 uM GlcN6P” value in the data set with glucosamine-6-phosphate [1] is less than 1e-05 s⁻¹. Besides, the “self-cleavage kobs at 640 uM GlcN6P” value with glucosamine-6-phosphate [2] is less than 1e-05 s⁻¹.

On to AUAAAAGCGCCAGAACUACAGAAAUGUAGUUGACGAGGAGGAGGUUUUUCGAAUUUUCGGAGGAUGUCUCCAAA [A48U C61A C67U], for which the “self-cleavage kobs at 40 uM GlcN6P” value with glucosamine-6-phosphate [1] was less than 1e-05 s⁻¹. Besides, in the data set with glucosamine-6-phosphate [5], the “self-cleavage kobs at 2500 uM GlcN6P” value is less than 1e-05 s⁻¹. In addition, the “self-cleavage kobs at 10000 uM GlcN6P” value with glucosamine-6-phosphate [3] was less than 1e-05 s⁻¹.

As for AUAAAAGCGCCCGGACUACAGAAAUGUAGUUGACGAGGAGGAGGUUUAUCGAUUUUUCGGCGGAUGGCUCCAAA [A12C A14G A53U C67G], the “self-cleavage kobs at 40 uM GlcN6P” value with glucosamine-6-phosphate [1] worked out at 9.17e-05 ± 2.3e-05 s⁻¹. The “self-cleavage kobs at 10000 uM GlcN6P” value in the data set with glucosamine-6-phosphate [3] was 0.00219 ± 0.00062 s⁻¹.

Take AUAAAAGCGCCAGAACUACAGAAAUGUAGUUGACGACGAGGAGGUUUCUCGAAUUUUCGGCGGAUGCCUCCAAA [G37C A48C]: in the data set with glucosamine-6-phosphate [1], the “self-cleavage kobs at 40 uM GlcN6P” value is less than 1e-05 s⁻¹. For the same variant, the “self-cleavage kobs at 640 uM GlcN6P” value with glucosamine-6-phosphate [2] was less than 1e-05 s⁻¹. In addition, the “self-cleavage kobs at 2500 uM GlcN6P” value in the data set with glucosamine-6-phosphate [5] was less than 1e-05 s⁻¹. Besides, in the data set with glucosamine-6-phosphate [3], the “self-cleavage kobs at 10000 uM GlcN6P” value is less than 1e-05 s⁻¹.

As for AUAAAAGCGCGAGAACUACAGAAAUGUAGUUGACGAGGAGGAGGUUUAUCGAAUUUUCGGCCGGUGCGUCCAAA [C11G G62C A64G C68G], the “self-cleavage kobs at 40 uM GlcN6P” value with glucosamine-6-phosphate [1] was less than 1e-05 s⁻¹. For the same variant, the “self-cleavage kobs at 10000 uM GlcN6P” value with glucosamine-6-phosphate [3] was less than 1e-05 s⁻¹.

On to AUAAAAGCGCCAGAACUACAGAAAUGUAGUUGACGAGGAGGAGGUUUGUCGAAUUUUCUGCGGAUGCCUCCAAA [A48G G59U], for which the “self-cleavage kobs at 40 uM GlcN6P” value in the data set with glucosamine-6-phosphate [1] is less than 1e-05 s⁻¹.

On to AUAAAAGCGCAAGUGCUACAGAAAUGUAAUUGACGAGGAGGAGUUUUAUCGAAUUUUCGGAGGAUGCCUCCAAA [C11A A14U A15G G29A G44U C61A], for which the “self-cleavage kobs at 40 uM GlcN6P” value with glucosamine-6-phosphate [1] was less than 1e-05 s⁻¹. Further, in the data set with glucosamine-6-phosphate [2], the “self-cleavage kobs at 640 uM GlcN6P” value was less than 1e-05 s⁻¹. The “self-cleavage kobs at 2500 uM GlcN6P” value with glucosamine-6-phosphate [5] was less than 1e-05 s⁻¹. The “self-cleavage kobs at 10000 uM GlcN6P” value with glucosamine-6-phosphate [3] was less than 1e-05 s⁻¹.

In the case of AUAAAAGCGCCAGAACUACAGAAAUGUAGUUGACGAGGAGGAGGUUUAUCGAAUUAUCCGCGGAUGCCUCCAAA [U56A G59C], in the data set with glucosamine-6-phosphate [1], the “self-cleavage kobs at 40 uM GlcN6P” value is less than 1e-05 s⁻¹. Moreover, the “self-cleavage kobs at 160 uM GlcN6P” value in the data set with glucosamine-6-phosphate [4] was less than 1e-05 s⁻¹. The “self-cleavage kobs at 640 uM GlcN6P” value with glucosamine-6-phosphate [2] was less than 1e-05 s⁻¹. The “self-cleavage kobs at 2500 uM GlcN6P” value with glucosamine-6-phosphate [5] was less than 1e-05 s⁻¹. Moreover, in the data set with glucosamine-6-phosphate [3], the “self-cleavage kobs at 10000 uM GlcN6P” value was less than 1e-05 s⁻¹.

Regarding AUAAAAGCGCGAGAACUACAGAAAUGUAGUUGACGAGGAGGAGGUUUAUAGUAUUUUCGGCGAAUGCCUCCAAA [C11G C50A A52U G63A], the “self-cleavage kobs at 40 uM GlcN6P” value with glucosamine-6-phosphate [1] was less than 1e-05 s⁻¹. The “self-cleavage kobs at 10000 uM GlcN6P” value with glucosamine-6-phosphate [3] is less than 1e-05 s⁻¹.

Turning to AUAAAAGCGCCAGGUCUACAGAAAUGUAGUUGACGAAGAGGAGGUUUAUCGAAUUUUCGGCGGAUGCCUCCAAA [A14G A15U G37A], the “self-cleavage kobs at 40 uM GlcN6P” value in the data set with glucosamine-6-phosphate [1] is 4.55e-05 ± 1.5e-05 s⁻¹. The “self-cleavage kobs at 10000 uM GlcN6P” value with glucosamine-6-phosphate [3] stood at 0.00249 ± 0.00037 s⁻¹.

On to AUAAAUGCGCCAGAACUACAGAAAUGUAGUUGACGAGGAGGAGGUUUGUCGAAUUUUCGGCGGAUGCCUCCAAA [A6U A48G], for which the “self-cleavage kobs at 40 uM GlcN6P” value in the data set with glucosamine-6-phosphate [1] was less than 1e-05 s⁻¹. Besides, in the data set with glucosamine-6-phosphate [4], the “self-cleavage kobs at 160 uM GlcN6P” value is less than 1e-05 s⁻¹. Further, in the data set with glucosamine-6-phosphate [5], the “self-cleavage kobs at 2500 uM GlcN6P” value is less than 1e-05 s⁻¹. In addition, in the data set with glucosamine-6-phosphate [3], the “self-cleavage kobs at 10000 uM GlcN6P” value is less than 1e-05 s⁻¹.
